According to paper PMC5591402:
Substitutions are numbered along the chain they refer to. Names and notes keep the numbering of the source.

T1: TAMRA-labeled α-synuclein peptide
T1 chain: GYQDYEPEA

B1: N2.17 VHH F100fS (protein)
chain: QGQLVESGGGSVQAGGSLRLSCAASGIDSSSYCMGWFRQRPGKEREGVARINGWGGVKTAYADSVKDRFTISRDNAENTVYLQMNSLKPEDTAIYYCAAKSSPGYCGGTWSNFGYWGQGTQVTVSS
B2: N2.17 VHH S96F (protein)
chain: B1 chain with S101F, S111F
B3: N2.17 VHH W52bL (protein)
chain: B1 chain with W54L, S111F
B4: N2.17 VHH T100dS (protein)
chain: B1 chain with T109S, S111F
B5: N2.12 VHH W52bL (protein)
chain: B1 chain with A49G, W54L, G55R, V57I
B6: N2.12 VHH R53G (protein)
chain: B1 chain with A49G, V57I
B7: N2.12 VHH S96F (protein)
chain: B1 chain with A49G, G55R, V57I, S101F
B8: N2.12 VHH G49A (protein)
chain: B1 chain with G55R, V57I
B9: N2.12 VHH T100dS (protein)
chain: B1 chain with A49G, G55R, V57I, T109S

Target: T1, TAMRA-labeled α-synuclein peptide
Assay: fluorescence polarization
Details: chain shown with the change;; parent: est. 8.6 x10^7 M^-1; read off a plot

Row | Binder | Ka
1 | B1 | 9.6 x10^7 M^-1
2 | B2 | 1.6 x10^7 M^-1
3 | B3 | 3.3 x10^7 M^-1
4 | B4 | 3.8 x10^7 M^-1

Same assay, conditions: chain shown with the change;; parent: est. 13 x10^7 M^-1; read off a plot

Row | Binder | Ka
5 | B5 | 6.2 x10^7 M^-1
6 | B6 | 7.1 x10^7 M^-1
7 | B7 | 6.7 x10^7 M^-1
8 | B8 | 13 x10^7 M^-1
9 | B9 | 8.5 x10^7 M^-1
